Bridge positions count the residues as written; N and C are the ends. Ends that are not written are not given here. PEG = not defined here
Columns and labels:
[1] = biological target: T1, human mpl receptor (Homo sapiens, UniProt P40238); assay: TPO in vitro bioassay, mitogenic assay in IL-3 dependent murine 32D cells; assay type: cell-based; settings: for Relative Potency: in terms of EC50, numerals indicate approximately 1 log of activity
T1 construct: IL-3 dependent clone of murine 32D cells transfected with the full-length c-Mpl; expressed in transfected cells; host or cells: IL-3 dependent clone of murine 32D cells
T1 sequence (P40238 26-635): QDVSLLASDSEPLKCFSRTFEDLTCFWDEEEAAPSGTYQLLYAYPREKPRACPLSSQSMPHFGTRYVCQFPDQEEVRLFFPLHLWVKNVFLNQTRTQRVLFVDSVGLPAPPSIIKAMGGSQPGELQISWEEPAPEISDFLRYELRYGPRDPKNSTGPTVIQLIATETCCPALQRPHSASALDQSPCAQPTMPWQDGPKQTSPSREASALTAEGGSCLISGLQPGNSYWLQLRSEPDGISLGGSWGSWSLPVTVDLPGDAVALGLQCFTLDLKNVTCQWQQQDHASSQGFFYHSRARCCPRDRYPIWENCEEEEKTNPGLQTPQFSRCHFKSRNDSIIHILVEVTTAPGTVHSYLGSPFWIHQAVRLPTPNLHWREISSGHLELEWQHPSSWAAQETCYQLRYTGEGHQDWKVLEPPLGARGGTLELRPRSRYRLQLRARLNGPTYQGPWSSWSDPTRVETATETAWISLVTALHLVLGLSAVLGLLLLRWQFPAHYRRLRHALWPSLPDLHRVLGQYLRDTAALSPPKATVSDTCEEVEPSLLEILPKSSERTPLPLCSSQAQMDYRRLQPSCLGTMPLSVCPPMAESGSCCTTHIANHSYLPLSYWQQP
Description: Bioactivity assay. The TPO in vitro bioassay is a mitogenic assay utilizing an IL-3 dependent clone of murine 32D cells that have been transfected with human mpl receptor. This assay is described in greater detail in WO 95/26746. Cells are maintained in MEM medium containing 10% Fetal Clone II and 1 ng/ml mIL-3. Prior to sample addition, cells are prepared by rinsing twice with growth medium lacking mIL-3. An extended twelve point TPO standard curve is prepared, ranging from 3333 to 39 pg/ml. Four dilutions, estimated to fall within the linear portion of the standard curve, (1000 to 125 pg/ml), are prepared for each sample and run in triplicate. A volume of 100 μl of each dilution of sample or standard is added to appropriate wells of a 96 well microtiter plate containing 10,000 cells/well. After forty-four hours at 37° C. and 10% CO2, MTS (a tetrazolium compound which is bioreduced by cells to a formazan) is added to each well. Approximately six hours later, the optical density is read on a plate reader at 490 nm. A dose response curve (log TPO concentration vs. O.D.-Background) is generated and linear regression analysis of points which fall in the linear portion of the standard curve is performed. Concentrations of unknown test samples are determined using the resulting linear equation and a correction for the dilution factor. […]

[2] = biological target: T2, c-Mpl (Homo sapiens, UniProt P40238); settings: cited from earlier work
T2 sequence (P40238 26-491 limits assumed): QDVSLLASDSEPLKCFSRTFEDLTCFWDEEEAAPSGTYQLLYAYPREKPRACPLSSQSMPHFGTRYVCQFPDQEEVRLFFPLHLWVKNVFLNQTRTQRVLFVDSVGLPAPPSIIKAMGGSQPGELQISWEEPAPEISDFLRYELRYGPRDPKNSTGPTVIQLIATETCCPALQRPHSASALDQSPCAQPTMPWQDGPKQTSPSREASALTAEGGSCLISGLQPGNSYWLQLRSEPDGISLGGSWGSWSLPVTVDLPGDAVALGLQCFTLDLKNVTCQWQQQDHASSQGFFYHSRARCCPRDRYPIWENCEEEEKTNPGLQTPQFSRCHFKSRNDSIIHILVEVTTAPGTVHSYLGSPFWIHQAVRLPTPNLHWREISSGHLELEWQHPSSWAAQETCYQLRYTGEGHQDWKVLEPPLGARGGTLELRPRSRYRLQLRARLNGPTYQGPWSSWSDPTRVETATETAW

[3] = biological target: T3, c-Mpl receptor (Homo sapiens, UniProt P40238); settings: cited from earlier work
T3 sequence (P40238 26-635): T1 sequence (P40238 26-635)

[4] = system: Normal female BDF1 mice; assay: platelets in mice, 7-day micro-osmotic pumps; assay type: in vivo
Description: Mice. Normal female BDF1 approximately 10-12 weeks of age.
Bleed schedule. Ten mice per group treated on day 0, two groups started 4 days apart for a total of 20 mice per group. Five mice bled at each time point, mice were bled a minimum of three times a week. Mice were anesthetized with isoflurane and a total volume of 140-160 μl of blood was obtained by puncture of the orbital sinus. Blood was counted on a Technicon H1E blood analyzer running software for murine blood. Parameters measured were white blood cells, red blood cells, hematocrit, hemoglobin, platelets, neutrophils.
Treatments. Mice were either injected subcutaneously for a bolus treatment or implanted with 7 day micro-osmotic pumps for continuous delivery. Subcutaneous injections were delivered in a volume of 0.2 ml. Osmotic pumps were inserted into a subcutaneous incision made in the skin between the scapulae of anesthetized mice. Compounds were diluted in PBS with 0.1% BSA. All experiments included one control group, labeled “carrier” that were treated with this diluent only. The concentration of the test articles in the pumps was adjusted so that the calibrated flow rate from the pumps gave the treatment levels indicated in the graphs.
Compounds. A dose titration of the compound was delivered to mice in 7 day micro-osmotic pumps. Mice were treated with various compounds at a single dose of 100 ug/kg in 7 day osmotic pumps. Some of the same compounds were then given to mice as a single bolus injection.

Relative Potency [1]	Substance	in vitro bioactivity in words [1]	further results
1.0	IEGPTLRQWLAARA [TMP monomer, 14-residue TPO Mimetic Peptide (Cwirla et al.)]		IC50 [2]: 2 nM; EC50 [3]: 400 nM
3.5	IEGPTLRQWLAARAARAALWQRLTPGEI [TMP C-C dimer, reference compound]	lower than that of the native TPO protein	binding affinity [2]: 0.5 nM; EC50 [3]: 0.1 nM
5.0	TMP-GGGC(PEG)GGGG-TMP (IEGPTLRQWLAARAGGGC(PEG)GGGGIEGPTLRQWLAARA; reading uncertain) [peptide 20]	even higher in vitro bioactivity as compared to their unpegylated counterparts	activity compared with unpegylated rHu-MGDF ([4]; 10 μg/kg/day): about equally active as 100 μg/kg/day unpegylated rHu-MGDF; activity relative to maximum ([4]; 10 μg/kg/day): about 50%; dose of maximum effect ([4]; dose response, data not shown): 100 µg/kg/day; lowest dose at which activity could be seen ([4]; mouse, in vivo): 1 µg/kg/day
4.0	TMP-GGGCGGGG-TMP (IEGPTLRQWLAARAGGGCGGGGIEGPTLRQWLAARA) [peptide 18]		
5.0	TMP-GGGK(PEG)GGGG-TMP (IEGPTLRQWLAARAGGGK(PEG)GGGGIEGPTLRQWLAARA; reading uncertain) [peptide 19]	even higher in vitro bioactivity as compared to their unpegylated counterparts	
4.0	TMP-GGGKGGGG-TMP (IEGPTLRQWLAARAGGGKGGGGIEGPTLRQWLAARA) [peptide 17a]		
4.0	TMP-GGGNGSGG-TMP (IEGPTLRQWLAARAGGGNGSGGIEGPTLRQWLAARA) [compound 21]	activity comparable to that of the -(Gly)8- linked analog	
3.0	TMP-GPNG-TMP (IEGPTLRQWLAARAGPNGIEGPTLRQWLAARA) [peptide 13]		increase in potency as compared to the monomer [1]: about 100 fold
4.0	TPO: native TPO protein, endogenous thrombopoietin		
0.5	peptide 14: Trp in each TMP monomer replaced with Cys, intramolecular disulfide bond between the two cysteines (IEGPTLRQCLAARAGGGGGGGGIEGPTLRQCLAARA; disulfide 9-31)	inactive	

Substance	Relative Potency [1]	in vitro bioactivity in words [1]	further results
IEGPTLRQALAARA-GGGGGGGG-IEGPTLRQALAARA (IEGPTLRQALAARAGGGGGGGGIEGPTLRQALAARA) [peptide 16]	0.5	inactive	
IEGPTLRQCLAARA-GGGGGGGG-IEGPTLRQCLAARA (IEGPTLRQCLAARAGGGGGGGGIEGPTRLQCLAARA) [compound 15]	0.5	inactive	

— patent US20110071077A1, “Thrombopoietic Compounds” (AMGEN INC., priority 2006, published 2011)
